In patent US20110190196A1 (University of California, published 2011):
Where two headings read alike, the source gives them in different places.

Assays:
Test in all cases: cell-based or functional assay
[1] = biological target: T1, ATP-binding cassette transporter A1 (ABCA1) (UniProt P41233 1-2261, limits assumed)
[2] = biological target: T1, ATP-binding cassette transporter A1 …; remark: listed apart in the source
[3] = biological target: T1, ATP-binding cassette transporter A1 …; remark: listed apart in the source
[4] = biological target: T1, ATP-binding cassette transporter A1 …; remark: listed apart in the source
[5] = biological target: T1, ATP-binding cassette transporter A1 …; remark: listed apart in the source
[6] = biological target: T1, ATP-binding cassette transporter A1 …; remark: listed apart in the source

T1 sequence (P41233 whole entry): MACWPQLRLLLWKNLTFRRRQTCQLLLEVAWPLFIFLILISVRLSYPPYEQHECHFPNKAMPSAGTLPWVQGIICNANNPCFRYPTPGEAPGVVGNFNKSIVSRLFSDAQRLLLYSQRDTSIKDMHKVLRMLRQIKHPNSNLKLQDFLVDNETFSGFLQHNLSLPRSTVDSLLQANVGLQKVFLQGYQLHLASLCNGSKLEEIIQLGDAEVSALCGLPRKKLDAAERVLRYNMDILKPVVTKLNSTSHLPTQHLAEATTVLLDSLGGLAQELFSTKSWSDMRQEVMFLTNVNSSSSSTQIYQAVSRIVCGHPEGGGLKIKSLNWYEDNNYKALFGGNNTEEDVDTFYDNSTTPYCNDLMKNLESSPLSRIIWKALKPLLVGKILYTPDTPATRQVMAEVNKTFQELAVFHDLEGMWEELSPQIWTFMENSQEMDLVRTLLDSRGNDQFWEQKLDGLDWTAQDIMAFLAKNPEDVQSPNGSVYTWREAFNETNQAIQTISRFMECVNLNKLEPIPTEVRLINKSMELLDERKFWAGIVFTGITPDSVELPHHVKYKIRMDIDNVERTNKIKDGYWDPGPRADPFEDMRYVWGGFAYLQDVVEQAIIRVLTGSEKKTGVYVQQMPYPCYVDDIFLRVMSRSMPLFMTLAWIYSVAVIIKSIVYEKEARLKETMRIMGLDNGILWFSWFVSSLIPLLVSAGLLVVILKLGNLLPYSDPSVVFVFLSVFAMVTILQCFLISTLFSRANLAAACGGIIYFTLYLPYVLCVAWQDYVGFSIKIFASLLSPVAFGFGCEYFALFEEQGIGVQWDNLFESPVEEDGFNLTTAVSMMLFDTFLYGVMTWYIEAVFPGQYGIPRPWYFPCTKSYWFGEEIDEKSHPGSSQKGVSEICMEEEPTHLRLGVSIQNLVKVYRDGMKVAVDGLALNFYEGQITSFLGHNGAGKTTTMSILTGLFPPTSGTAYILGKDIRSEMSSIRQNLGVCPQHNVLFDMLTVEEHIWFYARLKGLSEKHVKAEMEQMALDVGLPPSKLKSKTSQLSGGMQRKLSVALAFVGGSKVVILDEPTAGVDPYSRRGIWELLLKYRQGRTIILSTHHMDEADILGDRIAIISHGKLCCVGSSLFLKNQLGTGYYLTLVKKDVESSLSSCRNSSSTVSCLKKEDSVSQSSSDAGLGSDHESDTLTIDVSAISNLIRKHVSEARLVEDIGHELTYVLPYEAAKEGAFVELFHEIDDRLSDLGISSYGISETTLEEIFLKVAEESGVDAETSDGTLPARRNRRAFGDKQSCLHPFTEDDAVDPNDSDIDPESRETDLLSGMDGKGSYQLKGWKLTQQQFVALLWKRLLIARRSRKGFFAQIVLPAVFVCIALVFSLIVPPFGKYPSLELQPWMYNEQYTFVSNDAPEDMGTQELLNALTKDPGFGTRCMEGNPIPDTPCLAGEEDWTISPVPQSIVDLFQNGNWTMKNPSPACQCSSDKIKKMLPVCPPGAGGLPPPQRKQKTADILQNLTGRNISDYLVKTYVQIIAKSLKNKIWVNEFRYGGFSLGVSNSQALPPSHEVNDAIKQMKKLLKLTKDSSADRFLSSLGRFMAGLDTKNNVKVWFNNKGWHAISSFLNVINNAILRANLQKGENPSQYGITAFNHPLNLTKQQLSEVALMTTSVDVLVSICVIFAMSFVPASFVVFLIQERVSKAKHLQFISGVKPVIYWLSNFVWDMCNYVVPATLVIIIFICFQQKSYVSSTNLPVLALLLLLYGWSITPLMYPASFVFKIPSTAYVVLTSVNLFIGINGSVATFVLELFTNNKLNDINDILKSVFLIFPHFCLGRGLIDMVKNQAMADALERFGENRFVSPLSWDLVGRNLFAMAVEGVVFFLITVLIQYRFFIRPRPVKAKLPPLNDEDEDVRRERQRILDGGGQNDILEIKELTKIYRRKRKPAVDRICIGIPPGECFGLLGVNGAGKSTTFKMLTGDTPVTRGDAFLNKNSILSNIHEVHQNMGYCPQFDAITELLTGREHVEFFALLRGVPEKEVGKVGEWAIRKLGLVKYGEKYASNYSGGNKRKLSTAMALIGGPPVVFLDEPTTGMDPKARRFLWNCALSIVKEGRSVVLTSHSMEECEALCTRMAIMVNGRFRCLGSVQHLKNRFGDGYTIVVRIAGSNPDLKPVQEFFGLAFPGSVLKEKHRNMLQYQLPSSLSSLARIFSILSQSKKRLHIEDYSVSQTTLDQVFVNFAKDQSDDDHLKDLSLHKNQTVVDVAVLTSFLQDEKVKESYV

Molecule | Km of cholesterol efflux stimulation, mass basis (4 h efflux data, cAMP-treated J774 cells) [1] [µg/mL] | Km of cholesterol efflux stimulation, molar basis [1] | % cholesterol efflux/4 hours at 0.1 µg/ml [2] [%] | % cholesterol efflux/4 hours at 0.3 µg/ml [2] [%] | % cholesterol efflux/4 hours at 1.0 µg/ml [2] [%] | % cholesterol efflux/4 hours at 3.0 µg/ml [2] [%] | % cholesterol efflux/4 hours at 10 µg/ml [2] [%] | % cholesterol efflux/4 hours at 30 µg/ml [2] [%] | % cholesterol efflux/8 hours, No cAMP [3] [%] | % cholesterol efflux/8 hours, Plus cAMP [3] [%] | % cholesterol efflux/8 hours, +cAMP [4] [%] | % cholesterol efflux/8 hours, -cAMP [4] [%] | % cholesterol efflux/4 hours at 0.1 µg/ml [5] [%] | % cholesterol efflux/4 hours at 0.3 µg/ml [5] [%] | % cholesterol efflux/4 hours at 1.0 µg/ml [5] [%] | % cholesterol efflux/4 hours at 3.0 µg/ml [5] [%] | % cholesterol efflux/4 hours at 10 µg/ml [5] [%] | % cholesterol efflux/4 hours at 30 µg/ml [5] [%] | efficiency of cholesterol efflux against apoA-I, mass basis [6] [fold]
lipid-free apolipoprotein(apo)A-I (from UniProt P02647 19-267) (ligand) | 3.4 | 0.12 | – | – | – | – | – | – | – | – | – | – | – | – | – | – | – | – | –
ELRDRLEAWFDLFREFLERF [N1154-4] | – | – | 0 | 1.3 | 3.51 | 4.14 | 5.02 | 3.65 | 2.59 | 11.4 | – | – | – | – | – | – | – | – | –
DLRDRLDAWFDLFRDFLDRF [N1154-5] | – | – | 0 | 1.92 | 2.77 | 5.28 | 5.29 | 3.53 | 3.06 | 9.88 | – | – | – | – | – | – | – | – | –
ELREKLEAWFELFREFLERF [SEQ ID NO:2 peptide] | – | – | – | – | – | – | – | – | – | – | 5.26 | 2.29 | 0.15 | 0.52 | 1.72 | 4.6 | 3.62 | 3.66 | ~5
